Assay results taken from patent US20120148607A1 (ARGEN X N V, published 2012).

B1: 48A1 VL shuffled Fab (Fab, V domains shown)
VH: EVQLVQPGVELRNPGASVKVSCKASGYIFTMNSIDWVRQAPGQGLEWMGRIDPEDGGTKYAQKFQGRVTFTADTSTSTAYVELNSLRSEDTAVYYCARVDDYYLGYDYWGQGTQVTVSS
VL: EIVMTQSPSSVTASAGEKVTINCKSSQSVLWRSNQKNYLAWYQQRLGQSPRLLISWASIRESGVPDRFSGSGSTTDFTLTISSFQPEDAAVYYCQQGYSFPYTFGSGTRLEIK
notes: VL-shuffled Fab with the 38H10 heavy chain, periplasmic extract; The printed 48A1 VK reads the same as the 38H10 VK
B2: 48A11 VL shuffled Fab (Fab, V domains shown)
VH: EVQLVQPGVELRNPGASVKVSCKASGYIFTMNSIDWVRQAPGQGLEWMGRIDPEDGGTKYAQKFQGRVTFTADTSTSTAYVELNSLRSEDTAVYYCARVDDYYLGYDYWGQGTQVTVSS
VL: DIVMTQTPSSVTAAVGEKVAINCKSSQSVLYNPNQKSYLAWYQQRPGQSPRLLIYWASTRESGVPDRFSGSGSTTDFALTISSFQPEDAAVYYCQQGYSFPYSFGSGTRLEIR
notes: VL-shuffled Fab with the 38H10 heavy chain, periplasmic extract
B3: 48D2 VL shuffled Fab (Fab, V domains shown)
VH: EVQLVQPGVELRNPGASVKVSCKASGYIFTMNSIDWVRQAPGQGLEWMGRIDPEDGGTKYAQKFQGRVTFTADTSTSTAYVELNSLRSEDTAVYYCARVDDYYLGYDYWGQGTQVTVSS
VL: DIVMTQTPSSVTASAGEKVTINCKSSQSVLYNSNQKNYLAWYQQRLGQSPRLLIYWASTRESGVPDRFSGSGSTTDFTLTISSFQPEDAAVYYCQQGWSFPYTFGSGTRLEIK
notes: as for B2
B4: 48C8 VL shuffled Fab (Fab, V domains shown)
VH: EVQLVQPGVELRNPGASVKVSCKASGYIFTMNSIDWVRQAPGQGLEWMGRIDPEDGGTKYAQKFQGRVTFTADTSTSTAYVELNSLRSEDTAVYYCARVDDYYLGYDYWGQGTQVTVSS
VL: DIQLTQSPSSVTVSVGEKVTINCKSSQSVLYNSNQKNYLAWYQQRLGQSPRLLIYWASTRESGVPDRFSGSGSTTDFTLTISSFQPEDAAVYYCQQGWSFPYTFGSGTRLEIK
notes: as for B2
B5: 48E5 VL shuffled Fab (Fab, V domains shown)
VH: EVQLVQPGVELRNPGASVKVSCKASGYIFTMNSIDWVRQAPGQGLEWMGRIDPEDGGTKYAQKFQGRVTFTADTSTSTAYVELNSLRSEDTAVYYCARVDDYYLGYDYWGQGTQVTVSS
VL: DIQMTQSPSSVTASAGEKVTINCKSSQSVLYNSNQKNYLAWYQQRLGQSPRLLIYWASTRESGVPDRFSGSGSTTDFTLTISSFQPEDAAVYYCQQGWSFPYTFGSGTRLEIK
notes: as for B2
B6: 48D7 VL shuffled Fab (Fab, V domains shown)
VH: EVQLVQPGVELRNPGASVKVSCKASGYIFTMNSIDWVRQAPGQGLEWMGRIDPEDGGTKYAQKFQGRVTFTADTSTSTAYVELNSLRSEDTAVYYCARVDDYYLGYDYWGQGTQVTVSS
VL: DIVMTQTPASVTASAGEKVTINCKSSQSVLFSSNQKNYLAWYQQRVGQSPRLLIYWASTRESGVPDRFSGSGSTTDFTLTISNFQPEDAAVYYCQQGYSFPYSFGSGTRLEIR
notes: as for B2
B7: 48B6 VL shuffled Fab (Fab, V domains shown)
VH: EVQLVQPGVELRNPGASVKVSCKASGYIFTMNSIDWVRQAPGQGLEWMGRIDPEDGGTKYAQKFQGRVTFTADTSTSTAYVELNSLRSEDTAVYYCARVDDYYLGYDYWGQGTQVTVSS
VL: DIQLTQSPSSVTASAGEKVTINCKSSQSVLYGSNQKNYLAWYQQRLGQSPRLLIYWASTRESGVPDRFSGSGSTTDFTLTISSFQPEDAAVYYCQQGWSFPYTFGSGTRLEIK
notes: as for B2
B8: 48B8 VL shuffled Fab (Fab, V domains shown)
VH: EVQLVQPGVELRNPGASVKVSCKASGYIFTMNSIDWVRQAPGQGLEWMGRIDPEDGGTKYAQKFQGRVTFTADTSTSTAYVELNSLRSEDTAVYYCARVDDYYLGYDYWGQGTQVTVSS
VL: DVVMTQSPSSVTASVGEKVTINCKSSQSVLYTSNHKNYLAWYQQRLGQSPRLLIYWASTRESGVPDRFSGSGSTTDFTLTISSFQPEDAAVYYCQQGWSFPYSFGSGTRLEIK
notes: as for B2
B9: 48E2 VL shuffled Fab (Fab, V domains shown)
VH: EVQLVQPGVELRNPGASVKVSCKASGYIFTMNSIDWVRQAPGQGLEWMGRIDPEDGGTKYAQKFQGRVTFTADTSTSTAYVELNSLRSEDTAVYYCARVDDYYLGYDYWGQGTQVTVSS
VL: DVVMTQSPSSVTASAGEKVTINCKSSQSVLWSSNQKNYLAWYQQRVGQSPRLLIYWASTRESGVPDRFSGSGSTTDFTLTISNFQPEDAAVYYCQQGYSFPYSFGSGTRLEIR
notes: as for B2
B10: 36C4Q Fab (Fab, V domains shown)
VH: QVQLVESGPGLVKPSQTLSLTCAVSGGSITTNYYYWSWIRQSPGKGLEWMGVIAYDGSTDYSPSLKSRTSISRDTSKNQFSLQLSSVTPEDTAVYYCARDVRVIATGWATANALDAWGQGTQVTVSS
VL: QSVLTQPPSVSGSPGKTVTISCAGTSSDVGYGNYVSWYQQLPGTAPKLLIFAVSYRASGIPDRFSGSKSGNTAFLTISGLQSEDEADYYCASYRSSNNAAVFGGGTHLTVL
B11: 49G3 VL shuffled Fab (Fab, V domains shown)
VH: QVQLVESGPGLVKPSQTLSLTCAVSGGSITTNYYYWSWIRQSPGKGLEWMGVIAYDGSTDYSPSLKSRTSISRDTSKNQFSLQLSSVTPEDTAVYYCARDVRVIATGWATANALDAWGQGTQVTVSS
VL: QSALTQPPSVSGTLGKTLTISCAGTSTDVGYGNYVSWYQQLPGTAPKLLIFAVSYRASGIPDRFSGSKSGNTAFLTISGLQSEDEADYYCASYRSSNNAAVFGGGTHLTVL
notes: VL-shuffled Fab with the 36C4Q heavy chain, periplasmic extract
B12: 49E11 VL shuffled Fab (Fab, V domains shown)
VH: QVQLVESGPGLVKPSQTLSLTCAVSGGSITTNYYYWSWIRQSPGKGLEWMGVIAYDGSTDYSPSLKSRTSISRDTSKNQFSLQLSSVTPEDTAVYYCARDVRVIATGWATANALDAWGQGTQVTVSS
VL: QAVLTQPPSVSGTLGKTVTISCAGTSSDVGYGNYVSWYQKLPGTAPKLLIYAVSYRASGIPDRFSGSKSGNTASLTISGLQSEDEADYHCASYRTSNNVAVFGGGTKLTVL
notes: as for B11
B13: 49A11 VL shuffled Fab (Fab, V domains shown)
VH: QVQLVESGPGLVKPSQTLSLTCAVSGGSITTNYYYWSWIRQSPGKGLEWMGVIAYDGSTDYSPSLKSRTSISRDTSKNQFSLQLSSVTPEDTAVYYCARDVRVIATGWATANALDAWGQGTQVTVSS
VL: QSALTQPPSVSGSPGKTVTISCAGTSSDVGYGNYVSWYQKLPGTAPKLLIYAVSYRASGIPDRFSGSRSGNTASLTISGLQSEDEADYYCASYRITNRHSVFGGGTHLTVL
notes: as for B11
B14: 49D2 VL shuffled Fab (Fab, V domains shown)
VH: QVQLVESGPGLVKPSQTLSLTCAVSGGSITTNYYYWSWIRQSPGKGLEWMGVIAYDGSTDYSPSLKSRTSISRDTSKNQFSLQLSSVTPEDTAVYYCARDVRVIATGWATANALDAWGQGTQVTVSS
VL: QSVLTQPPSVSGTLGKTLTISCAGTSTDVGYGNYVSWYQQLPGTAPKLLIFAVSYRASGIPDRFSGSKSGNTAFLTISGLQSEDEADYYCASYRSSNNAAVFGGGTHLTVL
notes: as for B11
B15: 49D3 VL shuffled Fab (Fab, V domains shown)
VH: QVQLVESGPGLVKPSQTLSLTCAVSGGSITTNYYYWSWIRQSPGKGLEWMGVIAYDGSTDYSPSLKSRTSISRDTSKNQFSLQLSSVTPEDTAVYYCARDVRVIATGWATANALDAWGQGTQVTVSS
VL: LPVLTQPPSVSGTLGKTLTISCAGTSSDVGYGNYVSWYQQLPGTAPKLLIYAVSYRASGIPDRFSGSKSGNTASLSISGLQSEDEADYYCASYRSSNKNAVFGGGTHLTVL
notes: as for B11
B16: 49C4 VL shuffled Fab (Fab, V domains shown)
VH: QVQLVESGPGLVKPSQTLSLTCAVSGGSITTNYYYWSWIRQSPGKGLEWMGVIAYDGSTDYSPSLKSRTSISRDTSKNQFSLQLSSVTPEDTAVYYCARDVRVIATGWATANALDAWGQGTQVTVSS
VL: QSALTQPPSVSGTLGKTVTISCAGTSSDVGYGNYVSWYQKLPGTAPKLLIYAVTYRASGIPDRFSGSKSGNTASLTISGLQSEDEADYYCASYRRSTNVGVFGGGTHLTVL
notes: as for B11
B17: 49A1 VL shuffled Fab (Fab, V domains shown)
VH: QVQLVESGPGLVKPSQTLSLTCAVSGGSITTNYYYWSWIRQSPGKGLEWMGVIAYDGSTDYSPSLKSRTSISRDTSKNQFSLQLSSVTPEDTAVYYCARDVRVIATGWATANALDAWGQGTQVTVSS
VL: QSVLTQPPSVSGSPGKTVTISCAGTSSDVGYGNYVSWYQQLPGTAPKLLIFAVSYRASGIPDRFSGSKSGNTAFLTISGLQSEDEADYYCASYRSSNNAAVFGGGTHLTVL
notes: as for B11
B18: 12G4 Fab (Fab, V domains shown)
VH: QLQLVESGGGMAQPGGSLKLSCAASGFTFDDYAMTWVRQAPGKGLEWLSTISWNDINTYYAESMKDRFTISRDNAKNTLYLQMNSLESEDTAVYYCAKRRDNYYGTSGEYDYWGQGTQVTVSS
VL: QSALTQPPSVSGTLGKTVTISCAGTSSDIGNYNYVSWYQQLPGTAPKLLIYEVNKRPSGIPDRFSGSKSGNTASLSISGLQSEDEADYYCASYRSSNNVVFGGGTKLTVL
notes: Fab from the phage display library, tested as periplasmic extract
B19: 13E6 Fab (Fab, V domains shown)
VH: QVQLQESGGDLVQPGGSLRLSCAASGFTFDDYVMNWVRQAPGKGLEWISAINWNGGSTYYAESMKGRFTISRDNAKNTLYLQMYSLQSDDTAVYYCVKDTVVSGNGYWGQGTQVTVSS
VL: QSVLTQPPSVSGTLGKTVTISCAGTSSDIGDYNYVSWYQQLPGTAPKLLIYDVNKRASGIPDRFSGSKSGNTASLSISGLQSEDEADYYCASYRSRNDYAFGGGTKLTVL
notes: as for B18
B20: 20F1 Fab (Fab, V domains shown)
VH: EVQVQESGPGLVKPSQTLSLTCTVSGGSMTGNYYAWSWIRQPPGKGLEWMGVIAYDGSTYYSPSLKSRTSISRDTSKNQFSLQLSSVSPEDTAVYYCARGPGWYSGSRNDYWGQGTQVTVSS
VL: QSALTQPPSVSGSPGKTVTISCTGTNSDVGYGNYVSWYQQLPGMAPKLLIYDVNRRASGIADRFSGSKSGNTASLTISGLQSEDEGDYHCASYRSANNAVFGGGTHLFVL
notes: as for B18

The binders below were run against T1, recombinant dimeric c-Met (R&D systems, 358-MT/CF) (human, UniProt P08581 25-932) (assay: SPR, periplasmic Fab over Fc-Met (around 3000 RU) on CM5 chip).
T1 construct: Bought product; also called Fc-Met; recombinant c-Met
Method: The clones were then tested for their dissociation constants by Surface Plasmon Resonance. Around 3000 RU of Fc-Met was immobilized directly onto a CM5 chip to obtain a clear binding profile from the periplasmic extracts. Clones with an improved off-rate were sent for sequencing.

T1 sequence (P08581 25-932 limits assumed): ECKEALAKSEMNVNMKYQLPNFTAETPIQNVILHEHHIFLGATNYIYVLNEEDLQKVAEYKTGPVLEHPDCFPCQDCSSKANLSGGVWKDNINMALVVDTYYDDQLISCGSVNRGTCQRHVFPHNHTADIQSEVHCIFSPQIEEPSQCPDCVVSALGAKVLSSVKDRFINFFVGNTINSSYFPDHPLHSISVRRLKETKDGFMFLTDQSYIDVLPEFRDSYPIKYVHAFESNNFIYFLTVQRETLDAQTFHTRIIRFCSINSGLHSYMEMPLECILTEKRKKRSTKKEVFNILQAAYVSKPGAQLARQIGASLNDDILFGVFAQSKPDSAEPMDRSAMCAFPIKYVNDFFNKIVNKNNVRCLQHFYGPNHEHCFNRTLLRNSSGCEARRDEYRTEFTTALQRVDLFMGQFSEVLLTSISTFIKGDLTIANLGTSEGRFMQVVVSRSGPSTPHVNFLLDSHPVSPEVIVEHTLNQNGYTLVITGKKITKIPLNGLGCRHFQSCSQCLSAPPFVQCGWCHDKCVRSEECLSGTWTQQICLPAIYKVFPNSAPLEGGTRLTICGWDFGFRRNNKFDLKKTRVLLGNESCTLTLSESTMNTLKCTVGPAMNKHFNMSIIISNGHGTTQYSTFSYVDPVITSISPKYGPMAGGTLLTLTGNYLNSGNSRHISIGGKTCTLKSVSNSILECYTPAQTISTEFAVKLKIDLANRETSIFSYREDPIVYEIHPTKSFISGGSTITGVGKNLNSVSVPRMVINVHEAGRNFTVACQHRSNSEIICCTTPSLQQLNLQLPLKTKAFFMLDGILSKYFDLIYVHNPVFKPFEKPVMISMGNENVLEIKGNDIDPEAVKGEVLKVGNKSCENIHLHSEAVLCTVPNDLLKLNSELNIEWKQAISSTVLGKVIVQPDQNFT

Binder | koff
B1 | 0.00081 s⁻¹
B2 | 0.00025 s⁻¹
B3 | 0.00013 s⁻¹
B4 | 0.00033 s⁻¹
B5 | 0.00019 s⁻¹
B6 | 0.00025 s⁻¹
B7 | 0.00012 s⁻¹
B8 | 0.00033 s⁻¹
B9 | 0.00029 s⁻¹
B10 | 0.00017 s⁻¹
B11 | 0.00019 s⁻¹
B12 | 0.00063 s⁻¹
B13 | 0.00048 s⁻¹
B14 | 0.00017 s⁻¹
B15 | 0.00082 s⁻¹
B16 | 0.00018 s⁻¹
B17 | 0.00017 s⁻¹

The binders below were run against T1, recombinant dimeric c-Met (R&D systems, …) (assay: SPR, Fab-containing periplasmic extract over immobilised c-Met, dissociation 2 min).
Method: HGF-competing clones were sequenced in the VH and the VL regions and divided into VH families based on the sequence of the CDR3 in the VH. These VH families were further tested with Surface Plasmon Resonance (SPR) for dissociation (koff) and recognition of SEMA-PSI or the extracellular domain of c-Met (Decoy). Between 1000-2000 RU of dimeric c-Met, SEMA-PSI or Decoy c-Met was immobilised on a VIA chip with amine coupling in sodium acetate buffer (pH 4.5). The Fab-containing peris were added with a flow rate of 30 μl/min and Fabs were considered to be binding if an increase of the RU was observed. The koff was measured for 2 minutes for each sample.

Binder | koff
B18 | 0.00013 s⁻¹
B19 | 0.00065 s⁻¹
B20 | 0.0069 s⁻¹
